Values quoted from earlier work, collected in article PMC4965143.
Read-outs that look alike come from different tables or passages of the source.

Key:
[1] = biological target: PGC-1α coactivator peptide (Homo sapiens) (UniProt Q9UBK2)
[2] = biological target: PGC-1α coactivator peptide (Homo sapiens) (UniProt Q9UBK2); remark: listed apart in the source

UniProt Q9UBK2, sequence (Q9UBK2 whole entry): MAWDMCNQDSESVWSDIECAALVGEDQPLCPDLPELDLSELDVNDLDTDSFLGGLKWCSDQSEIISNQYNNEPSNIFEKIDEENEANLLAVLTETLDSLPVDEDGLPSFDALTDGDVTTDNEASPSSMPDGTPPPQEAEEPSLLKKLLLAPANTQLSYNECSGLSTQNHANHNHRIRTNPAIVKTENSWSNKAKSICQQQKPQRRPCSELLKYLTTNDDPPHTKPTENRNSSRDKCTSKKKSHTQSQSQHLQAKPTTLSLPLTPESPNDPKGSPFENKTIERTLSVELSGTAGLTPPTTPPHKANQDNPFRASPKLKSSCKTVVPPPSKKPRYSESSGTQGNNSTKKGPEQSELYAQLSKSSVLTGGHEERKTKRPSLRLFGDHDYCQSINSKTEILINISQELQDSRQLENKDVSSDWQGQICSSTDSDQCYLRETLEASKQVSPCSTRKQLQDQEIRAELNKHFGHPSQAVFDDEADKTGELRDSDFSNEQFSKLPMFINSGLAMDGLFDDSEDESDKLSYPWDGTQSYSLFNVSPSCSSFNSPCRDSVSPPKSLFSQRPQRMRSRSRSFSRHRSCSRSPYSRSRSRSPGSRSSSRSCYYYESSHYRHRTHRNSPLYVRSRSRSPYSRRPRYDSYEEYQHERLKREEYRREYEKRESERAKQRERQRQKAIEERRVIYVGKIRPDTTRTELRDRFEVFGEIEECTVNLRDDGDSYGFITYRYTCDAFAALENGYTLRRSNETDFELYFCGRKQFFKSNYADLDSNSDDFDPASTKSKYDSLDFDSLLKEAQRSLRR

Kd [1]: 8.5 µM
Kd [2]: 6 µM
Substance: SF-1 LBD (from UniProt Q13285)
